Source: patent publication US20240287547, “GENETIC MODIFICATION” (Peter Biotherapeutics, Inc., published 2024)

Experiments:
Assay in all cases: cell_activity; U937 RT-PCR; also edits KRAS in HEK293
[1] = biological target: pb76 DLRRR (7-zinc finger array + triple R element) (artificial)
From the text: (§1) As described above, each plasmid, pb74, pb75, and pb76 was introduced into U937 cells by electroporation. A “no DNA” transfection was used as control. […] post electroporation, cells transfected with these plasmids were detached and collected. Total RNAs from each condition were then extracted by using Trizol reagent. Five hundred nanograms of total RNA was then converted into DNA by reverse transcription (RT) reaction, followed by PCR using a primer set of Pop133 (SEQ ID. NO. 228) and Pop134 (SEQ ID. NO. 229). Three independent experiments were conducted. KRAS mRNA expression was quantitated by calculations of amplification band intensity of RT-PCR KRAS normalized by corresponding that of Ref-BMG using Bio-Rad Imagelab software. Introduction of pb74 (DLR), ob75 (DLRR), and pb76 (DLRRR) inhibit KRAS gene expression more than 50%.

[2] = biological target: pb75 DLRR (7-zinc finger array + double R element) (artificial)
From the text: as §1

[3] = biological target: pb74 DLR (7-zinc finger array + single R element) (artificial)
From the text: as §1

Measured: activity

Sequence of pb74 DLR (7-zinc finger array + single R element) (artificial) (chain, as listed by the source): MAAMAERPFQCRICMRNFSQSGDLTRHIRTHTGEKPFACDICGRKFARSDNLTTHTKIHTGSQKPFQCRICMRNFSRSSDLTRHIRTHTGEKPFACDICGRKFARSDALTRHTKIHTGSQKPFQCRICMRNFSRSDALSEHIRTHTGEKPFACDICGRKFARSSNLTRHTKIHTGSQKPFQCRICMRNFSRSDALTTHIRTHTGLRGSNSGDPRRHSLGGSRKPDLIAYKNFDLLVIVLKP
Sequence of pb76 DLRRR (7-zinc finger array + triple R element) (artificial) (chain, as listed by the source): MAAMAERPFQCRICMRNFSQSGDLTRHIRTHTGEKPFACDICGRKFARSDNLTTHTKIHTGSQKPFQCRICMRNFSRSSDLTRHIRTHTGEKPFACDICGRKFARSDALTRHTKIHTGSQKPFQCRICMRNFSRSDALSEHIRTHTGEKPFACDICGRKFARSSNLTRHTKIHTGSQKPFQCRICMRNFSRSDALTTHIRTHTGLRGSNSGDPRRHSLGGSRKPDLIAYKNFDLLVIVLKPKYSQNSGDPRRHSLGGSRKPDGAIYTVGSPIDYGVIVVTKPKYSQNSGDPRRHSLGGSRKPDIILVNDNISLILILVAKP
Sequence of pb75 DLRR (7-zinc finger array + double R element) (artificial) (chain, as listed by the source): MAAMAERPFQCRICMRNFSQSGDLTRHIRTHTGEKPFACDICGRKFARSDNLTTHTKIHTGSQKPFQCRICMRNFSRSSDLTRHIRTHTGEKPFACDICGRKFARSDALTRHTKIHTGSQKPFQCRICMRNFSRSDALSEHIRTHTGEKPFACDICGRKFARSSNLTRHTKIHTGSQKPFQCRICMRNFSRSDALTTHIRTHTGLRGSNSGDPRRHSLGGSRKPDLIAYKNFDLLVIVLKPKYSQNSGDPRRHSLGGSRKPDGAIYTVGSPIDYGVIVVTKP

B1: KRAS exon 1 site (dsDNA)
DNA 1: TTGGAGCTGGTGGCGTAGGCA
DNA 2: TGCCTACGCCACCAGCTCCAA
> 50 % inhibition of KRAS mRNA: [1] | [2] | [3]
